Key:
[1] = biological target: human Brachyury protein standard (Abcam ab114235) (human) (UniProt O15178); assay: dSimoa sandwich (capture beads + detector m8), 300 pM streptavidin-DNA/15 min; Brachyury at 0.048 fM
[2] = biological target: human Brachyury protein standard (Abcam ab114235) (human) (UniProt O15178); assay: conventional Simoa sandwich (capture beads + detector m8), 300 pM SβG/15 min; Brachyury at 0.048 fM
[3] = biological target: human Brachyury protein standard (Abcam ab114235) (human) (UniProt O15178); assay: conventional Simoa sandwich (capture beads + detector m8), 150 pM SβG/5 min; Brachyury at 150 fM
[4] = biological target: human Brachyury protein standard (Abcam ab114235) (human) (UniProt O15178); assay: dSimoa sandwich (capture beads + detector m8), 300 pM streptavidin-DNA/15 min; Brachyury at 0.24 fM
[5] = biological target: human Brachyury protein standard (Abcam ab114235) (human) (UniProt O15178); assay: conventional Simoa sandwich (capture beads + detector m8), 300 pM SβG/15 min; Brachyury at 6 fM
[6] = biological target: human Brachyury protein standard (Abcam ab114235) (human) (UniProt O15178); assay: conventional Simoa sandwich (capture beads + detector m8), 300 pM SβG/15 min; Brachyury at 0.24 fM
[7] = biological target: human Brachyury protein standard (Abcam ab114235) (human) (UniProt O15178); assay: conventional Simoa sandwich (capture beads + detector m8), 150 pM SβG/5 min; Brachyury at 6 fM
[8] = biological target: human Brachyury protein standard (Abcam ab114235) (human) (UniProt O15178); assay: conventional Simoa sandwich (capture beads + detector m8), 150 pM SβG/5 min; Brachyury at 1500 fM
[9] = biological target: human Brachyury protein standard (Abcam ab114235) (human) (UniProt O15178); assay: conventional Simoa sandwich (capture beads + detector m8), 300 pM SβG/15 min; Brachyury at 1500 fM
[10] = biological target: human Brachyury protein standard (Abcam ab114235) (human) (UniProt O15178); assay: conventional Simoa sandwich (capture beads + detector m8), 300 pM SβG/15 min; Brachyury at 150 fM
[11] = biological target: human Brachyury protein standard (Abcam ab114235) (human) (UniProt O15178); assay: conventional Simoa sandwich (capture beads + detector m8), 150 pM SβG/5 min; Brachyury at 0.048 fM
[12] = biological target: human Brachyury protein standard (Abcam ab114235) (human) (UniProt O15178); assay: conventional Simoa sandwich (capture beads + detector m8), 150 pM SβG/5 min; Brachyury at 30 fM
[13] = biological target: human Brachyury protein standard (Abcam ab114235) (human) (UniProt O15178); assay: conventional Simoa sandwich (capture beads + detector m8), 300 pM SβG/15 min; Brachyury at 30 fM
[14] = biological target: human Brachyury protein standard (Abcam ab114235) (human) (UniProt O15178); assay: dSimoa sandwich (capture beads + detector m8), 300 pM streptavidin-DNA/15 min; Brachyury at 30 fM
[15] = biological target: human Brachyury protein standard (Abcam ab114235) (human) (UniProt O15178); assay: dSimoa sandwich (capture beads + detector m8), 300 pM streptavidin-DNA/15 min; Brachyury at 150 fM
[16] = biological target: human Brachyury protein standard (Abcam ab114235) (human) (UniProt O15178); assay: conventional Simoa sandwich (capture beads + detector m8), 150 pM SβG/5 min; Brachyury at 0.24 fM
[17] = biological target: human Brachyury protein standard (Abcam ab114235) (human) (UniProt O15178); assay: conventional Simoa sandwich (capture beads + detector m8), 150 pM SβG/5 min; Brachyury at 1.2 fM
[18] = biological target: human Brachyury protein standard (Abcam ab114235) (human) (UniProt O15178); assay: dSimoa sandwich (capture beads + detector m8), 300 pM streptavidin-DNA/15 min; Brachyury at 1.2 fM
[19] = biological target: human Brachyury protein standard (Abcam ab114235) (human) (UniProt O15178); assay: conventional Simoa sandwich (capture beads + detector m8), 300 pM SβG/15 min; Brachyury at 1.2 fM
[20] = biological target: human Brachyury protein standard (Abcam ab114235) (human) (UniProt O15178); assay: dSimoa sandwich (capture beads + detector m8), 300 pM streptavidin-DNA/15 min; Brachyury at 6 fM
[21] = biological target: IL-6 protein standard (R&D Systems 206-IL-010) (UniProt P05231); assay: conventional Simoa sandwich on HD-1 (capture beads + detection antibody m11, SβG); IL-6 at 0.5 fM
UniProt P05231, sequence (P05231 30-212 limits assumed): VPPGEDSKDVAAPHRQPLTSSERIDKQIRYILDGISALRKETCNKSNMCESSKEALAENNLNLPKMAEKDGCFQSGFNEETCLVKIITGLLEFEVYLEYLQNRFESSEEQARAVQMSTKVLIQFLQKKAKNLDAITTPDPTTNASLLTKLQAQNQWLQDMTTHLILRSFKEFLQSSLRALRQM

[22] = biological target: IL-6 protein standard (R&D Systems 206-IL-010) (UniProt P05231); assay: conventional Simoa sandwich on HD-1 (capture beads + detection antibody m11, SβG); IL-6 at 1 fM
[23] = biological target: IL-6 protein standard (R&D Systems 206-IL-010) (UniProt P05231); assay: conventional Simoa sandwich on HD-1 (capture beads + detection antibody m11, SβG); IL-6 at 10 fM
[24] = biological target: IL-6 protein standard (R&D Systems 206-IL-010) (UniProt P05231); assay: conventional Simoa sandwich on HD-1 (capture beads + detection antibody m11, SβG); IL-6 at 0.1 fM
[25] = biological target: IL-6 protein standard (R&D Systems 206-IL-010) (UniProt P05231); assay: conventional Simoa sandwich on HD-1 (capture beads + detection antibody m11, SβG); IL-6 at 50 fM
[26] = biological target: IL-6 protein standard (R&D Systems 206-IL-010) (UniProt P05231); assay: CARD-dELISA sandwich (capture beads + detection antibody m11, streptavidin-poly-HRP, tyramide); IL-6 at 100 fM
[27] = biological target: IL-6 protein standard (R&D Systems 206-IL-010) (UniProt P05231); assay: CARD-dELISA sandwich (capture beads + detection antibody m11, streptavidin-poly-HRP, tyramide); IL-6 at 1 fM
[28] = biological target: IL-6 protein standard (R&D Systems 206-IL-010) (UniProt P05231); assay: CARD-dELISA sandwich (capture beads + detection antibody m11, streptavidin-poly-HRP, tyramide); IL-6 at 0.5 fM
[29] = biological target: IL-6 protein standard (R&D Systems 206-IL-010) (UniProt P05231); assay: CARD-dELISA sandwich (capture beads + detection antibody m11, streptavidin-poly-HRP, tyramide); IL-6 at 50 fM
[30] = biological target: IL-6 protein standard (R&D Systems 206-IL-010) (UniProt P05231); assay: CARD-dELISA sandwich (capture beads + detection antibody m11, streptavidin-poly-HRP, tyramide); IL-6 at 0.1 fM
[31] = biological target: IL-6 protein standard (R&D Systems 206-IL-010) (UniProt P05231); assay: CARD-dELISA sandwich (capture beads + detection antibody m11, streptavidin-poly-HRP, tyramide); IL-6 at 10 fM
[32] = biological target: IL-6 protein standard (R&D Systems 206-IL-010) (UniProt P05231); assay: conventional Simoa sandwich on HD-1 (capture beads + detection antibody m11, SβG); IL-6 at 100 fM
[33] = biological target: human interleukin-10 (IL-10) protein standard (printed as Biolegend 501501) (human) (UniProt P22301); assay: conventional Simoa sandwich (capture beads + detector m5), 150 pM SβG/5 min; IL-10 at 0.6 fM
UniProt P22301, sequence (P22301 19-178 limits assumed): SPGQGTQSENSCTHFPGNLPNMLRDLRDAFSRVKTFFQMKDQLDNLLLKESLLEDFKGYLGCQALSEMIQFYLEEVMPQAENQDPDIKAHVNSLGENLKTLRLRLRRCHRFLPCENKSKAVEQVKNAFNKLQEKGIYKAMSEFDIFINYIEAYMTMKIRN

[34] = biological target: human interleukin-10 (IL-10) protein standard (printed as Biolegend 501501) (human) (UniProt P22301); assay: dSimoa sandwich (capture beads + detector m5), 150 pM streptavidin-DNA/15 min; IL-10 at 0.024 fM
[35] = biological target: human interleukin-10 (IL-10) protein standard (printed as Biolegend 501501) (human) (UniProt P22301); assay: conventional Simoa sandwich (capture beads + detector m5), 150 pM SβG/15 min; IL-10 at 75 fM
[36] = biological target: human interleukin-10 (IL-10) protein standard (printed as Biolegend 501501) (human) (UniProt P22301); assay: conventional Simoa sandwich (capture beads + detector m5), 150 pM SβG/5 min; IL-10 at 3 fM
[37] = biological target: human interleukin-10 (IL-10) protein standard (printed as Biolegend 501501) (human) (UniProt P22301); assay: conventional Simoa sandwich (capture beads + detector m5), 150 pM SβG/5 min; IL-10 at 15 fM
[38] = biological target: human interleukin-10 (IL-10) protein standard (printed as Biolegend 501501) (human) (UniProt P22301); assay: conventional Simoa sandwich (capture beads + detector m5), 150 pM SβG/15 min; IL-10 at 0.0048 fM
[39] = biological target: human interleukin-10 (IL-10) protein standard (printed as Biolegend 501501) (human) (UniProt P22301); assay: conventional Simoa sandwich (capture beads + detector m5), 150 pM SβG/5 min; IL-10 at 0.024 fM
[40] = biological target: human interleukin-10 (IL-10) protein standard (printed as Biolegend 501501) (human) (UniProt P22301); assay: conventional Simoa sandwich (capture beads + detector m5), 150 pM SβG/15 min; IL-10 at 0.6 fM
[41] = biological target: human interleukin-10 (IL-10) protein standard (printed as Biolegend 501501) (human) (UniProt P22301); assay: dSimoa sandwich (capture beads + detector m5), 150 pM streptavidin-DNA/15 min; IL-10 at 0.12 fM
[42] = biological target: human interleukin-10 (IL-10) protein standard (printed as Biolegend 501501) (human) (UniProt P22301); assay: conventional Simoa sandwich (capture beads + detector m5), 150 pM SβG/15 min; IL-10 at 0.12 fM
[43] = biological target: human interleukin-10 (IL-10) protein standard (printed as Biolegend 501501) (human) (UniProt P22301); assay: conventional Simoa sandwich (capture beads + detector m5), 150 pM SβG/15 min; IL-10 at 15 fM
[44] = biological target: human interleukin-10 (IL-10) protein standard (printed as Biolegend 501501) (human) (UniProt P22301); assay: conventional Simoa sandwich (capture beads + detector m5), 150 pM SβG/5 min; IL-10 at 0.0048 fM
[45] = biological target: human interleukin-10 (IL-10) protein standard (printed as Biolegend 501501) (human) (UniProt P22301); assay: conventional Simoa sandwich (capture beads + detector m5), 150 pM SβG/15 min; IL-10 at 3 fM
[46] = biological target: human interleukin-10 (IL-10) protein standard (printed as Biolegend 501501) (human) (UniProt P22301); assay: dSimoa sandwich (capture beads + detector m5), 150 pM streptavidin-DNA/15 min; IL-10 at 0.6 fM
[47] = biological target: human interleukin-10 (IL-10) protein standard (printed as Biolegend 501501) (human) (UniProt P22301); assay: dSimoa sandwich (capture beads + detector m5), 150 pM streptavidin-DNA/15 min; IL-10 at 15 fM
[48] = biological target: human interleukin-10 (IL-10) protein standard (printed as Biolegend 501501) (human) (UniProt P22301); assay: conventional Simoa sandwich (capture beads + detector m5), 150 pM SβG/5 min; IL-10 at 75 fM
[49] = biological target: human interleukin-10 (IL-10) protein standard (printed as Biolegend 501501) (human) (UniProt P22301); assay: dSimoa sandwich (capture beads + detector m5), 150 pM streptavidin-DNA/15 min; IL-10 at 0.00096 fM
[50] = biological target: human interleukin-10 (IL-10) protein standard (printed as Biolegend 501501) (human) (UniProt P22301); assay: dSimoa sandwich (capture beads + detector m5), 150 pM streptavidin-DNA/15 min; IL-10 at 3 fM
[51] = biological target: human interleukin-10 (IL-10) protein standard (printed as Biolegend 501501) (human) (UniProt P22301); assay: conventional Simoa sandwich (capture beads + detector m5), 150 pM SβG/5 min; IL-10 at 0.12 fM
[52] = biological target: human interleukin-10 (IL-10) protein standard (printed as Biolegend 501501) (human) (UniProt P22301); assay: conventional Simoa sandwich (capture beads + detector m5), 150 pM SβG/15 min; IL-10 at 0.024 fM
[53] = biological target: human interleukin-10 (IL-10) protein standard (printed as Biolegend 501501) (human) (UniProt P22301); assay: dSimoa sandwich (capture beads + detector m5), 150 pM streptavidin-DNA/15 min; IL-10 at 0.0048 fM

UniProt O15178, sequence (O15178 whole entry): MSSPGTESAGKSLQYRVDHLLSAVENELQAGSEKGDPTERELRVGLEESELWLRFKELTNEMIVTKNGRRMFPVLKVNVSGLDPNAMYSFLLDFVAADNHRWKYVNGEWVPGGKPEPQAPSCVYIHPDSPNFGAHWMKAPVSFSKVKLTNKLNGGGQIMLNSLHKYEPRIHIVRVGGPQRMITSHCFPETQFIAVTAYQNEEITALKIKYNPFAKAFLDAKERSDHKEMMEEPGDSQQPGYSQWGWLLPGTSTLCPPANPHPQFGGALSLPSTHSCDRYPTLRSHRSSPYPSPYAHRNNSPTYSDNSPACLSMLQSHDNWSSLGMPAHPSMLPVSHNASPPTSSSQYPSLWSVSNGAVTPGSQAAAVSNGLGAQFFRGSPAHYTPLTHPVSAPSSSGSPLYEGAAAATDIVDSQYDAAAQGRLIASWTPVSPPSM

Substance: Brachyury capture antibody (Abcam ab236023)
- average AMB [1]: 0.0127 AMB
- average AEB [2]: 0.0398 AEB
- average AEB [3]: 0.677 AEB
- average AMB [4]: 0.0147 AMB
- average AEB [5]: 0.105 AEB
- average AEB [6]: 0.0395 AEB
- average AEB [7]: 0.0425 AEB
- average AEB [8]: 5.97 AEB
- average AEB [9]: 14.3 AEB
- average AEB [10]: 1.77 AEB
- average AEB [11]: 0.0108 AEB
- average AEB [12]: 0.156 AEB
- average AEB [13]: 0.358 AEB
- average AMB [14]: 0.156 AMB
- average AMB [15]: 0.825 AMB
- average AEB [16]: 0.012 AEB
- average AEB [17]: 0.0174 AEB
- average AMB [18]: 0.0173 AMB
- average AEB [19]: 0.0494 AEB
- average AMB [20]: 0.0417 AMB

Substance: IL-6 capture antibody (R&D Systems MAB206)
- average AEB [21]: 0.0098 AEB
- average AEB [22]: 0.0151 AEB
- average AEB [23]: 0.111 AEB
- average AEB [24]: 0.005 AEB
- average AEB [25]: 0.522 AEB
- average AEB [26]: 0.171 AEB
- average AEB [27]: 0.0058 AEB
- average AEB [28]: 0.005 AEB
- average AEB [29]: 0.0937 AEB
- average AEB [30]: 0.0031 AEB
- average AEB [31]: 0.0151 AEB
- average AEB [32]: 1.03 AEB

Substance: IL-10 capture antibody (Biolegend 506802)
- average AEB [33]: 0.0296 AEB
- average AMB [34]: 0.0058 AMB
- average AEB [35]: 2.05 AEB
- average AEB [36]: 0.0765 AEB
- average AEB [37]: 0.306 AEB
- average AEB [38]: 0.0355 AEB
- average AEB [39]: 0.0218 AEB
- average AEB [40]: 0.05 AEB
- average AMB [41]: 0.0097 AMB
- average AEB [42]: 0.0395 AEB
- average AEB [43]: 0.386 AEB
- average AEB [44]: 0.0194 AEB
- average AEB [45]: 0.107 AEB
- average AMB [46]: 0.0281 AMB
- average AMB [47]: 0.561 AMB
- average AEB [48]: 1.41 AEB
- average AMB [49]: 0.0045 AMB
- average AMB [50]: 0.121 AMB
- average AEB [51]: 0.0208 AEB
- average AEB [52]: 0.0439 AEB
- average AMB [53]: 0.0042 AMB
